Target: microtubules (MT fraction from mouse brain) (mouse (endogenous in mouse brain)) (UniProt P68369)
Assay: co-sedimentation

Substance: recombinant human tau lacking the MT-binding domain (tau ΔMTBD) (from UniProt P10636-6 1-383) (natural protein)
- MT-bound fraction: 0.619
- MT-unbound fraction: 0.381

Source: article PMC6743362
